Tested on: Ifit1
Test: filter binding
Conditions: 5' cap 0 (N-7 methylguanosine)

G3 VEEV TRD 5'-UTR RNA, cap 0 gave a Kd of 91 nM.

Source: paper PMC4209899
